Source: US20260055206A1 (GENSUN BIOPHARMA, published 2026)
Residue numbers refer to the chain shown, from its start.

B1: DLL3.1 (humanized anti-DLL3 antibody) (antibody, V domains shown)
VH: QVQLVQSGAEVKKPGASVKVSCKASDYTFSNYYIEWVRQAPGQGLEWMGEILPGNGNTVYNEKFKDRVTMTVDTSTSTAYMELRSLRSDDTAVYYCARWGDYALFANWGQGTLVTVSS
VL: DIQMTQSPSTLSASVGDRVTITCKASQNVGTNVAWYQQKPGKAPKALIYSASYRYSGVPSRFSGSGSGTEFTLTISSLQPDDFATYYCQQYNSYPFTFGQGTKLEIK
notes: it was detected with anti-human IgG Fc
B2: DLL3.4 (humanized anti-DLL3 antibody) (antibody, V domains shown)
VH: B1 VH with S25T, T28I, N55T, A79V, R84S, D89E
VL: B1 VL with T10F, A46P, A51T, D81E, S93N, F96L, Q100G, L104V
notes: as for B1
B3: DLL3.3 (humanized anti-DLL3 antibody) (antibody, V domains shown)
VH: QVQLVQSGAEVKKPGASVKVSCKASGYTFTDYFMNWVRQAPGQGLEWMGVINPYNDITIYNQKFQGRVTMTVDRSTSTVYMELSSLRSEDTAVYYCAREGVLYDGYYEGAYWGQGTLVTVSS
VL: DIQLTQSPSFLSASVGDRVTITCKASQNVGIAVAWYQQKPGKAPKLLIYAASNRYTGVPSRFSGSGSGTEFTLTISSLQPEDFATYYCQQYSTYPYTFGQGTKLEIK
notes: as for B1

The binders below were run against T1, human DLL3 (over-expressed on CHO-K1 cells) (human, UniProt Q9NYJ7 27-618) (assay: flow cytometry (iQue) on CHO-K1 cells over-expressing human DLL3, PE anti-human IgG Fc secondary).
T1 construct: whole, on cells; also called huDLL3; Delta-like 3
T1 sequence (looked up): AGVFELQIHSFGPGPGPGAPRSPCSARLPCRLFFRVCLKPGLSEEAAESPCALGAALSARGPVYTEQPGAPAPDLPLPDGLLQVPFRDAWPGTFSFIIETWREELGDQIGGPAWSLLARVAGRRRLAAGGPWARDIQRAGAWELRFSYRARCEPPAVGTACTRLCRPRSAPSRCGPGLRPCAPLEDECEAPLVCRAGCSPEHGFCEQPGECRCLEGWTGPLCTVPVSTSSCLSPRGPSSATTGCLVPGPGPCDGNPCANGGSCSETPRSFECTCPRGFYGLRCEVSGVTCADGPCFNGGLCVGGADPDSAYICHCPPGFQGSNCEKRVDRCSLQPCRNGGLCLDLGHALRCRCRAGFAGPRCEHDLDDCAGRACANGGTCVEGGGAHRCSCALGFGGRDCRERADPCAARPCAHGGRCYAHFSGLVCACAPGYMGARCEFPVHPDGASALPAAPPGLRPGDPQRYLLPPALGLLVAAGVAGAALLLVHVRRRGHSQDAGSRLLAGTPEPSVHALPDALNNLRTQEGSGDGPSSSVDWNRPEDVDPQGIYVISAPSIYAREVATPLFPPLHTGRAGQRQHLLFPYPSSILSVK
Protocol: To evaluate the ability of anti-DLL3 antibodies to bind, human serial dilutions of the anti-DLL3 antibodies were added to CHO-K1 cells (20,000 cells/well) over-expressing human or cyno DLL3. The mixtures were incubated at 4° C. for 20 minutes, washed 3 times, and stained with the secondary antibody, PE labeled F(ab′)2-Goat anti-human IgG Fc (Thermo H10104) at 4° C. for 20 minutes. Cells were washed and resuspended in 7-Amino-Actinomycin D (7-AAD) solution and fixed in 10% neutral buffered formalin solution for 15 minutes before analysis with the iQue-Intellicyt […]™ iQUE™ system. FIG. 3A is a graph of the concentration (nM) versus the mean fluorescence intensity.

Binding result, binds:
B1
B2
B3
